From patent US6818612B2, “Use of parvovirus capsid particles in the inhibition of cell proliferation and migration” (priority 1998, dated 2004)

Legend:
human fetal liver cells [1] = experiment: Colony formation assay (Stem cell CFU kit, 11 day) of fetal liver cells; format: cell-based; settings: FIG. 9
human fetal liver cells [2] = experiment: as above; format: cell-based; settings: fetal liver cells
Excerpt: In a first set of experiments, it was discovered that B19 parvovirus capsids inhibit hematopoiesis and that these molecules could be used to reduce the overproduction of red blood cells, white blood cells, and blood platelets, as is experienced by patients suffering from hematological proliferative diseases, such as Polycytemia Vera. (See FIG. 1A). In a first set of experiments, fresh human fetal liver cells, umbilical cord blood cells, and bone marrow cells were contacted with recombinant B19 parvovirus capsids in a colony formation assay. The general features of a colony formation assay are depicted in FIG. 1B. The ability of the B19 parvovirus capsids to inhibit hematopoiesis was verified by the reduction of colony formation in the presence of the capsids, as compared to untreated control populations of cells. A more detailed description of these experiments is provided below.
To obtain fetal liver tissue, human fetuses 6-12 weeks of gestational age were obtained from legal abortions; the patients had volunteered to donate fetal tissue. Gestational age was estimated according to specific anatomical markers and is given as menstruational age. Abortions were performed with vacuum aspirations. Fetal liver was dissected under sterile conditions, placed in a sterile tube containing RPMI1640 and disintegrated by passage through a vinyl mesh to form a single cell suspension. Nucleated cells were then washed three times, counted and diluted in culture medium.
A commercial kit—the “Stem cell CFU kit” (GIBCO BRL, Life Technology Inc., NY, USA)—was used to perform the colony formation assays. The kit provides a semi-solid support that mimics the extracellular matrix produced by stromal cells. Other components included in the kit are: Iscove's modified Dulbecco's medium, modified fetal bovine serum, methylcellulose, 2-mercaptoethanol, conditioned medium and erythropoietin. The colonies that were formed in the assay were identified as BFU-E (burst forming unit-erythroid cells) with densely packed hemoglobonized cells, CFU-GM (colony forming units-granulocytes, macrophages) with arrangements of non-hemoglobinized cells, and CFU-GEMM (colony forming units-granulocytes, erythroid cells, macrophages, megakaryocytes) with hemoglobinized cells and small and large peripheral cells.
Recombinant B19 parvovirus empty capsid particles (Kajigaya et al., Proc Natl Acad Sci USA, 88:4646 (1991)) were prepared in a recombinant baculovirus-insect cell (Spodofera frugiperda) expression system. (Kajigaya et al., Proc Natl Acad Sci USA, 88:4646 (1991)). The isolated or purified capsids were diluted in buffer (20 mM Tris, 0.5M NaCl, pH 8.5) and 30 μL of each dilution was added to approximately 25×10^3 cells (50×10^3 for postnatal cells) in 100 μL of culture medium and incubated for 1 hour at 4° C. The mixtures were then transferred to incubation dishes and culture medium was added to a final volume of 0.5 ml per well. The cells were then incubated for 11 days in a humidified atmosphere at 5% CO2, and were scored for BFU-E, CFU-GM and CFU-GEMM derived colony formation.

[3] = system: human umbilical vein endothelial cells (HUVEC); experiment: Endothelial cell proliferation assay (crystal violet, A540); format: cell-based
Procedure: To determine whether B19 parvovirus capsids can inhibit endothelial cell proliferation, assays were performed in which primary human umbilical vein endothelial cells, plated at a density of 1.5×10^4 cells per well in a 24 well plate, were incubated with B19 parvovirus capsids in the presence of 0.5% fetal calf serum+10.0 ng/ml basic fibroblast growth factor. The various B19 parvovirus capsid preparations (i.e., VP1/2 or capsids made with only VP1 or VP2) were added to each well on the following day and the cells with capsids were incubated for additional 72 hours. Cell proliferation was then determined by using a crystal violet dye assay. Accordingly, capsid treated cells were washed in PBS, fixed in 3.7% formaldehyde, and incubated with crystal violet. The dye was then removed by extensive washes with distilled water. The cell-associated crystal violet was solubilized with 10% acetic acid and quantified at absorbance 540 nm in an ELISA plate reader.
Thus, from left to right, the bars represent the absorbance at 540 nm with 0 μg/ml, 0.01 μg/ml, 0.1 μg/ml, 1.0 μg/ml, and 10.0 μg/ml. […] The standard deviation was within 10%.

HUVEC cells = experiment: Endothelial cell migration assay (modified Boyden chamber); format: cell-based, human
Procedure: The effect of B19 parvovirus capsid preparations on cell migration was also determined. The migration assays were performed using a modified Boyden chamber assay (Neuroprobe, Inc.). Basic fibroblast growth factor (40 ng/ml) was added to stimulate migration of the HUVEC cells through a collagen 1 coated 8 μm pore size millipore filter. Cells were incubated for 60 min with the various B19 parvovirus capsid preparations (i.e., VP1/2 or capsids made with only VP1 or VP2) prior to conducting the migration assay. To perform the migration assay, the Boyden chamber was incubated for 4.5 h at 37° C. in a 10% CO2 atmosphere. The filters were subsequently removed and were fixed in 3.7% formaldehyde. Cell migration was visualized by staining the filters overnight in Gill's Hematoxylin. The number of migrating cells were scored by counting stained cells on the migrating side of the filter per high power magnification field. (See FIG. 15).

Molecule	inhibition of hematopoiesis and cell growth (colony formation) by deletion series peptides (human fetal liver cells [1])	inhibition of colony formation (human fetal liver cells [2]; 1 μg/ml VP2 capsid, FIG. 4)	colony formation, % of the control (human fetal liver cells [2]; 30 μg/mL, FIG. 5)	inhibition of hematopoietic cell growth (human fetal liver cells [2]; 30 μg/ml, FIG. 3)	lowest concentration at which inhibition of colony formation of hematopoietic cells was seen (human fetal liver cells [2]; 11 day colony formation assay, 'as little as' / 'as low as') [µg/mL]	inhibition of colony formation of hematopoietic stem cells compared with VP1/2 capsids (human fetal liver cells [2]; FIG. 4)	inhibition of endothelial cell proliferation ([3]; 10.0 μg/ml, FIG. 14)	lowest concentration that efficiently inhibits endothelial cell proliferation ([3]; 72 hours, 10.0 ng/ml basic fibroblast growth factor, FIG. 14, 'as low as') [µg/mL]	inhibition of endothelial cell migration compared with other capsid preparations (HUVEC cells; FIG. 15)	lowest concentration that effectively inhibited endothelial cell migration (HUVEC cells; basic fibroblast growth factor 40 ng/ml, FIG. 15, 'as low as') [µg/mL]
NKGTQQYTDQ (OTHER INFORMATION: Peptide fragments derived from parvovirus capsid particles) [Peptide IV]	significantly inhibit hematopoiesis and cell growth	–	–	–	–	–	–	–	–	–
QQY [Peptide VIII]	significantly inhibit hematopoiesis and cell growth	–	–	–	–	–	–	–	–	–
VP2 capsids: B19 parvovirus capsids having only VP2 (protein) MTSVNSAEASTGAGGGGSNSVKSMWSEGATFSANSVTCTFSRQFLIPYDPEHHYKVFSPAASSCHNASGKEAKVCTISPIMGYSTPWRYLDFNALNLFFSPLEFQHLIENYGSIAPDALTVTISEIAVKDVTDKTGGGVQVTDSTTGRLCMLVDHEYKYPYVLGQGQDTLAPELPIWVYFPPQYAYLTVGDVNTQGISGDSKKLASEESAFYVLEHSSFQLLGTGGTASMSYKFPPVPPENLEGCSQHFYEMYNPLYGSRLGVPDTLGGDPKFRSLTHEDHAIQPQNFMPGPLVNSVSTKEGDSSNTGAGKALTGLSTGTSQNTRISLRPGPVSQPYHHWDTDKYVTGINAISHGQTTYGNAEDKEYQQGVGRFPNEKEQLKQLQGLNMHTYFPNKGTQQYTDQIERPLMVGSVWNRRALHYESQLWSKIPNLDDSFKTQFAALGGWGLHQPPPQIFLKILPQSGPIGGIKSMGITTLVQYAVGIMTVTMTFKLGPRKATGRWNPQPGVYPPHAAGHLPYVLYDPTATDAKQHHRHGYEKPEELWTAKSRVHPL	–	Approximately 50%	less than 30 % of the control	significant inhibition	3	as effectively as VP1/2 capsids	significant inhibition	1.0	significantly more potent than that observed with either native capsids (VP1/2) or capsids having only VP1	1
